Reference: paper PMC4159615 (Developmental cell, 2014)

Tests used:
[1] = target: T1, Chs5(1-299)/Bch1 exomer complex (S. cerevisiae (yeast), UniProt Q12114 1-299; Q05029 1-724); test: co-sedimentation
T1 sequence 1: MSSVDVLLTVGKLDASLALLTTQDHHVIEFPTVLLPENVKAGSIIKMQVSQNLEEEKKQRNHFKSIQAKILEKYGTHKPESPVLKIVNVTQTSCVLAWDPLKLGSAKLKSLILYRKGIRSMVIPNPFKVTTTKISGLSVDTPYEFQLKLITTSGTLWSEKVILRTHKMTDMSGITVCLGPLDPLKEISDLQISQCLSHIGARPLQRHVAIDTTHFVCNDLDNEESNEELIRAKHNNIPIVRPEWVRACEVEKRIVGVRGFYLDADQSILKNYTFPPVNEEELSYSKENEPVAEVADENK
T1 sequence 2: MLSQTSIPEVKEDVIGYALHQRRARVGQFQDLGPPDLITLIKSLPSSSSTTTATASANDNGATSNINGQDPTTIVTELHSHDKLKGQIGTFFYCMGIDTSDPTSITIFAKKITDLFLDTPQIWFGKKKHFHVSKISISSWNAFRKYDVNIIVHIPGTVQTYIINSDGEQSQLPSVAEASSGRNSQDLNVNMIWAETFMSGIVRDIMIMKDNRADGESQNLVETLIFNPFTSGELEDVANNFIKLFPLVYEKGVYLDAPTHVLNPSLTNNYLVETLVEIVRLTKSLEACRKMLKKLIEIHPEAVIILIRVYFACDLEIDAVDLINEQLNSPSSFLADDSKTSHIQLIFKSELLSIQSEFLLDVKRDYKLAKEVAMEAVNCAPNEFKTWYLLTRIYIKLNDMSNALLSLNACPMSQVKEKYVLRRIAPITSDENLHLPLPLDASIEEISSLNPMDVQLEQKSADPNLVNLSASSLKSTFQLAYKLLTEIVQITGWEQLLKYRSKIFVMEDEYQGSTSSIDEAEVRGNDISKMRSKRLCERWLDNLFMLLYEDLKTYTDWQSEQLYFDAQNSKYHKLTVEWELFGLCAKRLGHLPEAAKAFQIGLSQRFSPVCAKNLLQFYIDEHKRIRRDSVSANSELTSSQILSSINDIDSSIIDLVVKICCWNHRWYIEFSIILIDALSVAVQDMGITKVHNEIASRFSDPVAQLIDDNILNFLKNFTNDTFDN

[2] = target: T1, Chs5(1-299)/Bch1 exomer complex; test: crystal structure
Bch1 = target: T2, Bch1 (S. cerevisiae (yeast), UniProt Q05029 1-724); test: crystal structure
T2 sequence: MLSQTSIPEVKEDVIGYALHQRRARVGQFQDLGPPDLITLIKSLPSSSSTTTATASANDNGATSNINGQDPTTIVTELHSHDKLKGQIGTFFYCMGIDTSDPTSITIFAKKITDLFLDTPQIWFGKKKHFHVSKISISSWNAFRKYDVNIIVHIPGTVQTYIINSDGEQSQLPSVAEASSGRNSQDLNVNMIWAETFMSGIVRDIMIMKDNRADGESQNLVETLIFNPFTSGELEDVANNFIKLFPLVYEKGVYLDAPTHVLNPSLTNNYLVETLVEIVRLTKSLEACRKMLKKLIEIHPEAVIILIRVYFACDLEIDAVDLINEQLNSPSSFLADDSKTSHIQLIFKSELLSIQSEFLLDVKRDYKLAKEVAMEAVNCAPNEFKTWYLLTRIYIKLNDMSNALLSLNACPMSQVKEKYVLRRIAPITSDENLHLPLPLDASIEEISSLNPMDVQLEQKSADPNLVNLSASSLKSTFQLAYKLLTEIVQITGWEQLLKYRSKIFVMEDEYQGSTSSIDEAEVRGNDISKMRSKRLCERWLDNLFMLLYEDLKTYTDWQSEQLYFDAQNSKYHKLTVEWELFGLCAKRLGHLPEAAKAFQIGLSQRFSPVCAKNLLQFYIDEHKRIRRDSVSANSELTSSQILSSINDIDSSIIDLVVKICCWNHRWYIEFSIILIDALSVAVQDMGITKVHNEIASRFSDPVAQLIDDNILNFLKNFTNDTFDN

B1: myristoylated Arf1-S98Y (natural protein, yeast, UniProt P11076 1-181, looked up)
chain: MGLFASKLFSNLFGNKEMRILMVGLDGAGKTTVLYKLKLGEVITTIPTIGFNVETVQYKNISFTVWDVGGQDRIRSLWRHYYRNTEGVIFVVDSNDRYRIGEAREVMQRMLNEDELRNAAWLVFANKQDLPEAMSAAEITEKLGLHSIRNRPWFIQATCATSGEGLYEGLEWLSNSLKNST
modifications: myristoylated
Does B1 bind [1]?
Result: binds

B2: ΔN17-Arf1-Q71L bound to GMPPNP (domain or fragment, S. cerevisiae (yeast), UniProt P11076 18-181, looked up)
chain: MRILMVGLDGAGKTTVLYKLKLGEVITTIPTIGFNVETVQYKNISFTVWDVGGLDRIRSLWRHYYRNTEGVIFVVDSNDRSRIGEAREVMQRMLNEDELRNAAWLVFANKQDLPEAMSAAEITEKLGLHSIRNRPWFIQATCATSGEGLYEGLEWLSNSLKNST
How did the “stoichiometry N” value [2] turn out when B2 was run?
Its value is 2.

Does B2 bind (Bch1)?
Result: binds
